Assay [1] deals with CCR5 chemokine receptor on the cell surface (UniProt P51681). The assay can be described thus: cell-based or functional assay.
Assay [2] has the same target. Put plainly: flow cytometry on L1.2-CCR5+ cells, PE anti-mouse IgG.
Assay [3] shares this target. The assay can be described thus: flow cytometry on mitogen-stimulated PBMC.
Assay [4] has the same target.
The target in assay [5] is HIV-1JR-FL envelope glycoproteins gp120/gp41 on HeLa-EnvJR-FL+ cells (HIV-1 JR-FL). The assay can be described thus: cell-based or functional assay.

UniProt P51681, sequence (P51681 whole entry): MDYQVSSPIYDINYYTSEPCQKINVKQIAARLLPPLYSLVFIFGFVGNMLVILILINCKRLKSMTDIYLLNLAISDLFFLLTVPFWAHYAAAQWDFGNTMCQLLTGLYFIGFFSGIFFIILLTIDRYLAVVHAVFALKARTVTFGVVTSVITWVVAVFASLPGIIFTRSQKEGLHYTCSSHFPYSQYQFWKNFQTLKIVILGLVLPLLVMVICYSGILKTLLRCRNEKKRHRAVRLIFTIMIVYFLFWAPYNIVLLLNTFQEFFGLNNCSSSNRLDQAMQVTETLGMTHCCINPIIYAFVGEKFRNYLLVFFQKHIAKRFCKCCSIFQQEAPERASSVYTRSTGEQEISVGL

By IC50 is commonly meant the point on the concentration scale where inhibition reaches its midpoint. A lower IC50 goes with greater potency in that assay. As to anti-CCR5 monoclonal antibody PA14, in assay [1], the % inhibition of entry attained is over 90%; the % inhibition of fusion attained was over 90%; the IC50, inhibition of JR-FL entry (luciferase reporter virus, U87MG-CD4+CCR5+ cells) was found to be 0.024 µg/mL; the IC50, inhibition of cell-cell fusion (RET assay, PM1 and HeLa-EnvJR-FL+ cells) came to 1.7 µg/mL. For the same substance, in assay [1], the IC50 for calcium influx inhibition (RANTES-induced, L1.2-CCR5+ cells) was found to be 50 µg/mL and the IC50 for calcium influx inhibition, ratio to the IC50 for 2D7 was 8 fold. Besides, in assay [2], the % of L1.2-CCR5+ cells stained was over 90%. Besides, in assay [3], the % of PBMC stained was over 20% and the fold difference of m.f.i. against PA9 was 7 fold. This substance also registered an IC50 in assay [4] of 1.58 µg/mL.
In assay [1], anti-CCR5 mAb 2D7 (antibody) yielded an IC50, inhibition of JR-FL entry (luciferase reporter virus, U87MG-CD4+CCR5+ cells) of 0.026 µg/mL; an IC50, inhibition of cell-cell fusion (RET assay, PM1 and HeLa-EnvJR-FL+ cells) of 1.6 µg/mL; a K (equal to the IC50) of the median effect fit, inhibition of cell-cell fusion (RET assay) of 0.36 µg/mL. The same substance showed a % of L1.2-CCR5+ cells stained in assay [2] of over 90%. The % of PBMC stained in assay [3] is over 20%. This substance yielded an IC50 in assay [4] of 1.38 µg/mL.
As to T-20 peptide, in assay [5], the K (equal to the IC50) of the median effect fit, inhibition of env-mediated membrane fusion (RET assay, HeLa-EnvJR-FL+ and PM1 cells) was determined as 0.017 µg/mL.
Same read-out and setting: in the case of “CD4-IgG2 (from UniProt P01730 26-204; P01730 26-203) (Fc fusion)” it was 0.31 µg/mL.

Source of the values: patent US20060233798A1.
